Experimental data from IntAct's records for PubMed 31515488.

B1: Casein kinase II subunit alpha' (Homo sapiens), P19784 (parent)
chain: MPGPAAGSRARVYAEVNSLRSREYWDYEAHVPSWGNQDDYQLVRKLGRGKYSEVFEAINITNNERVVVKILKPVKKKKIKREVKILENLRGGTNIIKLIDTVKDPVSKTPALVFEYINNTDFKQLYQILTDFDIRFYMYELLKALDYCHSKGIMHRDVKPHNVMIDHQQKKLRLIDWGLAEFYHPAQEYNVRVASRYFKGPELLVDYQMYDYSLDMWSLGCMLASMIFRREPFFHGQDNYDQLVRIAKVLGTEELYGYLKKYHIDLDPHFNDILGQHSRKRWENFIHSENRHLVSPEALDLLDKLLRYDHQQRLTAKEAMEHPYFYPVVKEQSQPCADNAVLSSGLTAAR
B2: Sodium channel modifier 1 (Homo sapiens), Q9BWG6 (parent)
chain: MSFKREGDDWSQLNVLKKRRVGDLLASYIPEDEALMLRDGRFACAICPHRPVLDTLAMLTAHRAGKKHLSSLQLFYGKKQPGKERKQNPKHQNELRREETKAEAPLLTQTRLITQSALHRAPHYNSCCRRKYRPEAPGPSVSLSPMPPSEVKLQSGKISREPEPAAGPQAEESATVSAPAPMSPTRRRALDHYLTLRSSGWIPDGRGRWVKDENVEFDSDEEEPPDLPLD
partner: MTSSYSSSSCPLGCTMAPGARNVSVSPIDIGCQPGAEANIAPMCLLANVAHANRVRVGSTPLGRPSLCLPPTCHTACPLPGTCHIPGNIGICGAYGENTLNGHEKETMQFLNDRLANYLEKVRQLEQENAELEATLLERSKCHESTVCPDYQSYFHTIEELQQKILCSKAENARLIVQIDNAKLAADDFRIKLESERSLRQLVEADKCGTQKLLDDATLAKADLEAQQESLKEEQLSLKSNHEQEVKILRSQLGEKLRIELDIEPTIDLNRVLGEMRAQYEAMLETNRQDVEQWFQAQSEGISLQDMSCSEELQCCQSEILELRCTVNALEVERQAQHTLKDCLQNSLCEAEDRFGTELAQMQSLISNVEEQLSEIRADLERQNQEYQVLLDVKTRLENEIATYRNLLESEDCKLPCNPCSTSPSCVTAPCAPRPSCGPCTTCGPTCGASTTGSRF
B3: Conserved oligomeric Golgi complex subunit 2 (Homo sapiens), Q14746 (parent)
chain: MEKSRMNLPKGPDTLCFDKDEFMKEDFDVDHFVSDCRKRVQLEELRDDLELYYKLLKTAMVELINKDYADFVNLSTNLVGMDKALNQLSVPLGQLREEVLSLRSSVSEGIRAVDERMSKQEDIRKKKMCVLRLIQVIRSVEKIEKILNSQSSKETSALEASSPLLTGQILERIATEFNQLQFHAVQSKGMPLLDKVRPRIAGITAMLQQSLEGLLLEGLQTSDVDIIRHCLRTYATIDKTRDAEALVGQVLVKPYIDEVIIEQFVESHPNGLQVMYNKLLEFVPHHCRLLREVTGGAISSEKGNTVPGYDFLVNSVWPQIVQGLEEKLPSLFNPGNPDAFHEKYTISMDFVRRLERQCGSQASVKRLRAHPAYHSFNKKWNLPVYFQIRFREIAGSLEAALTDVLEDAPAESPYCLLASHRTWSSLRRCWSDEMFLPLLVHRLWRLTLQILARYSVFVNELSLRPISNESPKEIKKPLVTGSKEPSITQGNTEDQGSGPSETKPVVSISRTQLVYVVADLDKLQEQLPELLEIIKPKLEMIGFKNFSSISAALEDSQSSFSACVPSLSSKIIQDLSDSCFGFLKSALEVPRLYRRTNKEVPTTASSYVDSALKPLFQLQSGHKDKLKQAIIQQWLEGTLSESTHKYYETVSDVLNSVKKMEESLKRLKQARKTTPANPVGPSGGMSDDDKIRLQLALDVEYLGEQIQKLGLQASDIKSFSALAELVAAAKDQATAEQP
B4: Interferon-induced protein with tetratricopeptide repeats 2 (Homo sapiens), P09913 (parent)
chain: MSENNKNSLESSLRQLKCHFTWNLMEGENSLDDFEDKVFYRTEFQNREFKATMCNLLAYLKHLKGQNEAALECLRKAEELIQQEHADQAEIRSLVTWGNYAWVYYHMGRLSDVQIYVDKVKHVCEKFSSPYRIESPELDCEEGWTRLKCGGNQNERAKVCFEKALEKKPKNPEFTSGLAIASYRLDNWPPSQNAIDPLRQAIRLNPDNQYLKVLLALKLHKMREEGEEEGEGEKLVEEALEKAPGVTDVLRSAAKFYRRKDEPDKAIELLKKALEYIPNNAYLHCQIGCCYRAKVFQVMNLRENGMYGKRKLLELIGHAVAHLKKADEANDNLFRVCSILASLHALADQYEDAEYYFQKEFSKELTPVAKQLLHLRYGNFQLYQMKCEDKAIHHFIEGVKINQKSREKEKMKDKLQKIAKMRLSKNGADSEALHVLAFLQELNEKMQQADEDSERGLESGSLIPSASSWNGE
partner: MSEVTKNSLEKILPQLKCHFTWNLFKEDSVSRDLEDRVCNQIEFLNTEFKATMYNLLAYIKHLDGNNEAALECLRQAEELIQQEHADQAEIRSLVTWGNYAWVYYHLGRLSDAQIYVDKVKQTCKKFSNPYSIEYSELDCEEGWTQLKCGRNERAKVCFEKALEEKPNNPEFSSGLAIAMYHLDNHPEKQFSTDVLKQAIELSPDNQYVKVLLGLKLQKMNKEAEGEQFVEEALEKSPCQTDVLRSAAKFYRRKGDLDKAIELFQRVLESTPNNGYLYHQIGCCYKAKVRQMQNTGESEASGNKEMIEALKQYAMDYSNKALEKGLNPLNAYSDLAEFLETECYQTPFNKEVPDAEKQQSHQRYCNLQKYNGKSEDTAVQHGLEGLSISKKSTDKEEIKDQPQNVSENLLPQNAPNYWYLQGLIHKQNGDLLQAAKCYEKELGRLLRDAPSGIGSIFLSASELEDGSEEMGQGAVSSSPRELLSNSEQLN
B5: Protein mab-21-like 3 (Homo sapiens), Q8N8X9 (parent)
chain: MKYLTVGDLEDCLLNKVDLRRQQISQAVEEVQKVVHHLTTNISNQDIRFQAVPYSDTYNENIKVLAPSQFLVTVPIKGLAGYREAREQHWRYYTLQGTRLPCPLRDPEGLQQWLEVEQFMKSLWQWHETDVNIDGDIVPAKVLLVFRKLVENAVRTCHLSGKVSLLGNRSAVWVAVETSAYQVELELVPAVEIPTTWSKKARWPRCLQRWPSQERVECIKSFGFNLLACSNYHWQLSFLRAEQVLLEQLDEDGGCRRKCFQVMRHLKEDIWCPGNRPVITSHHLQTVLFWTCEKYPHFKDWQVFSKAFLRLVRKLHKCVSQHFLKHYFVRNSNLFQCTNPTELDTVAQKLATFLKNPQIGPP
partner: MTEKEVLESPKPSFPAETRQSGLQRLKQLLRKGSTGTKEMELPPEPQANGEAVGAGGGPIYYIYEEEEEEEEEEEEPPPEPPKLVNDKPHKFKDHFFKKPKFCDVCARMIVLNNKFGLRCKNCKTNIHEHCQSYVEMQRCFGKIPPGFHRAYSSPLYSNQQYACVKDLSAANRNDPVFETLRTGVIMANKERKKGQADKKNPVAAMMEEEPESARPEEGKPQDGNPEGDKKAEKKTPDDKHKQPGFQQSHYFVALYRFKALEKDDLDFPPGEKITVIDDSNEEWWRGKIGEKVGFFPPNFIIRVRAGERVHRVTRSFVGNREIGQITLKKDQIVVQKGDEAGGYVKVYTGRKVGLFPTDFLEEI

Variants of: B1
Details: with tri41_human TRIM41, Q8WV44

effect of a mutation on the interaction	Variant
with no effect	N63T

Variants of: B2
Details: with krt38_human KRT38, O76015

effect of a mutation on the interaction	Variant
with no effect	A174V

Variants of: B3
Details: with mtus2_human MTUS2, Q5JR59
Sequence of mtus2_human MTUS2, Q5JR59 (Q5JR59 whole entry): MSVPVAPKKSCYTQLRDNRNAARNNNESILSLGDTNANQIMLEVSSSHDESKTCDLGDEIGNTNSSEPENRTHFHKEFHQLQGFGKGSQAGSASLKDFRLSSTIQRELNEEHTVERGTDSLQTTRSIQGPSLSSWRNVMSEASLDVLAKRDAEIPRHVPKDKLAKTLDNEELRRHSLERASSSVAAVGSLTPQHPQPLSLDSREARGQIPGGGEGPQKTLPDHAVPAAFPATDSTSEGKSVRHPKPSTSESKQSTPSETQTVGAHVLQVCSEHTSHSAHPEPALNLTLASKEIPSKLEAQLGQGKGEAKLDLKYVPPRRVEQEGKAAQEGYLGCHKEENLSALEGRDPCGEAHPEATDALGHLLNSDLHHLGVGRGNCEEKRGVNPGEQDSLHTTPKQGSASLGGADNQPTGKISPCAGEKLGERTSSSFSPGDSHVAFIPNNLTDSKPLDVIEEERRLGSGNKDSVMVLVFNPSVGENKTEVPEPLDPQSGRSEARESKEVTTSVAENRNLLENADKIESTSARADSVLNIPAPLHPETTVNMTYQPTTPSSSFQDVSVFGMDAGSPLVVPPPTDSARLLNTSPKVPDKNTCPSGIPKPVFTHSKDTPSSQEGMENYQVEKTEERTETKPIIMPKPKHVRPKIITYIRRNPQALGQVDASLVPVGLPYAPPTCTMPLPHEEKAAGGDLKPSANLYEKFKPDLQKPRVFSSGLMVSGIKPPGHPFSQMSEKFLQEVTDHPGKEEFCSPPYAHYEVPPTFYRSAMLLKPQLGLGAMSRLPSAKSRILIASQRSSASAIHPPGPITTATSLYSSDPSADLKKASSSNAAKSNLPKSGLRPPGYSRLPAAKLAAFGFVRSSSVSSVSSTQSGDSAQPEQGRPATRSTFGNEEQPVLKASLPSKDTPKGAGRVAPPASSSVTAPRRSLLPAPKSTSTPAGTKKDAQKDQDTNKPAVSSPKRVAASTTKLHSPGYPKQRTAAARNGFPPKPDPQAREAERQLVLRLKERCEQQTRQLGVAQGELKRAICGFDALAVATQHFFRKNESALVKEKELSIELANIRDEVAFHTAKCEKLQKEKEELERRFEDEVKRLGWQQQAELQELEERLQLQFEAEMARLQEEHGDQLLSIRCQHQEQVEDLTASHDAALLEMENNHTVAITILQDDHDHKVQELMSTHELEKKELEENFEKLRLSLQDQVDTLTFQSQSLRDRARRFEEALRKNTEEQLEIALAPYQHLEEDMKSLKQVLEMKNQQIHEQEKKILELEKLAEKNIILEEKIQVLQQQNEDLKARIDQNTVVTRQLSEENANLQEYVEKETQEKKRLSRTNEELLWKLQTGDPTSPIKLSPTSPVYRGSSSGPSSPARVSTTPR

effect of a mutation on the interaction	Variant
with no effect	V589I

Variants of: B4
Details: with ifit3_human IFIT3, O14879

effect of a mutation on the interaction	Variant
disrupting interaction strength	E79A

Variants of: B5
Details: with stac3_human STAC3, Q96MF2

effect of a mutation on the interaction	Variant
with no effect	T338A
